B1: CYPDN22: cytochrome P450 homolog XM_023609077 from Rhizopus microsporus, codon-optimized (protein, listed as Rhizopus microsporus)
chain: MAISFLYREGPAERLKRLKLPAMRKGNGFYLSRVPFCWTVYVANPIAAKQLLLKAENFPKSHFLMVGKDSPFVQFLGPDNVVNSNGENWKKQRKVMNPAFHRSMPVKTIAGVVLTLFAVIDKYKGKVPVTSTMQEFTLDVLGLAIFNFDFGSLKGDAKKWRAEYKLVMLFDPVTNVFTGFDFLLRYIYPKRIKGANAVNNLNKLFDQLVKQKRLEVQSGVHANKPQNEKDLLTLMLEAEQRGEAMTTDMEMRHNVAVFFLAGHESTAHVLSFTLYFLAKNKYVQQKLREEVSRVMGRKSVDVAPTLEELRQMEYLYAVIKESLRLCSIFDVLILRDAVEDMYLDDTFIPKGTRITIDVSAIQRDPKVWNNPDDFIPERFMEGGEAEGHEGMTWLPFGGGARQCIGMNFSLTEQKVALAMLVQRYDIDVPKDSIHYEDIAYERPFYLAPQSLELTFTKLH
B2: CYPDN28: cytochrome P450 homolog A0A1X2HYB6 from Absidia repens, codon-optimized (protein, listed as Absidia repens)
chain: MLTQYIHQFFNNFDQKKTMDQLQSVASSKDGVIGIATALILISGVAAYKSSTVERGCPQVPCGTFSFGSTSEYRENPVAFVKKWEEKLGPVFGAQLFGQYATIVSGPQVREIFSNENFSFMAGIQRDFDTYLLANGGSIHDLPPHVVSGGIKKNLSPKLPFYTSRVIEHLKIGLYEQCGVVPDEGKEFDHVYPFVQHMVAKASASVFVGPELAKDLNLVDSFKNMVLEVGSDMGPKPYLEHFPHLMRLRMWYIGKTSTNVKRHRDQLFAALVPQIDSRLKAMKEKDSNWDRPNDFLQDILETDDCPPHMDIYSYCVDWMTQIIFAALHTTSENGTIVLYRLLDNPKVLEELYEEQNAVLEEAGYDDTVGPEVFTREILNKFVKMDSVIRESCRLRNDYIGLPHTNVGKKTIVLSGGAMIRPGENAFVNFYSNHRDEKLQKSGMNANNFEPYRFVDQGKNSTKIGDDFMFFGMFKHACPGRWFAIQEIKTILAMLIRSYKMSAIDSVVFPTSDYTRIPTGRFKIVPRK
B3: CYPDN24: cytochrome P450 homolog A0A077WFB8 from Lichtheimia ramosa, codon-optimized (protein, listed as Lichtheimia ramosa)
chain: MDNQTWSSVPGASFWKGKLVSGHYVREVFLNNDFDFLKGTGKRFDTLLLTDTTTQDVDIEVFRTVVMKHLTKEMKAYTPRVVQHLTAGGDEKLGDAKEPQELVHLFPLLQHMVAKASASIFVGTELASDDDVVETCKNIAIDIGSELGPGSYIMDAFPSLARLRMWYIGKFGKAINKHRQHLLRALGPVIDKRLAAAEKGGDWDRPQDILQDIIETINLTLDNPKRHILPVKWLLALFFASIHTTSENSTIVLYRIMQNPEIIDVLLEEQNQVLEKHYGSNIDYSDTTKLFTGEVIKELVKLDSLCREAMRARNSYLELPHTYVGKSRITLSCGAIIEPGHDVLINMWGNHRDAKIQRDTIGDHHDFKPFRFVGLDRQSTKIGDDFLMFGQGRHACPGRWFAIQEIKTIVSVLIRYYKLTPNGPITFPTHPRMPMPMGQVIIQRRQ
B4: CYPDN20: cytochrome P450 homolog A0A163A6R1 from Phycomyces blakesleeanus, codon-optimized (protein, listed as Phycomyces biakesleeanus)
chain: MCLFFCKKVYDFTAVPYELKKFPNIPFFYFVKSILSVESVENRTKRLVLPLLHKNNGFYVSRFPFYWTVFTTDPDAVQYLLMKGEIFPKDTRFTSAVSKDSLIIRLFGSSNVAFISGEPLKHQCRTMNPAFRRTAPVNIFGRLIPDMFRLIDKSDGDILIVNLLQRMTFDALGKALFGFDFKTMKEDNSAWMTAYSDAMSGVTAPVLNIIPSLEYILRYFYPNYTKAKNGVDKLNRLILELVNKKKQELEESMPQSCSNNNNGDTDGDAYDQEKDLLTLILEAEMKDNKSSGSDDLRANMATFIMAGHETTASSVSFCIYHMVINKDVRDKARREALDILGYDDFISPPTFDECKRVNYINMVVKEALRLCTPGGLLFERIATEDVFLSGVFIPKGTRISVDIEALHKNPAIWKNPSVFDPERFSKGGEHEQHRGITWAPFSDGNRKCLGINFSMTEQQVILLMLLKHYEWDLSENSIHNNGMVYDNVFSFAPKTLSIKFHKRH
B5: CYPDN18: cytochrome P450 homolog A0A0C9MNJ6 from Mucor ambiguus, codon-optimized (protein, listed as Mucor ambiguus)
chain: MYSTASYNQTLERVVSVVRKNKTSYIGMAILCVVLQQIYSSFAVPPKHLRRFPKVSFMELMKSFYKKESVMNRNKRLVTPLTNAGHGFYISRIPLDWTIYVTDPIAAKTLLLKTDNFPKSHAIFGALGESSPVVKFMGNENVAVSNDILWRKQRKIMNPAFHRSQPVKVFGGVMPDLFALIDQDPEHVFITPKIKSFALDALGLSAFGFDFQSLKNDPEGWTSKYNTVVSSLFNPFVNLFAKCDFLIKYISAERRRVIKVTDEFNAMLSNLADKRRQEIMNGEKKNIAENEKDLLTLMIEADTREGVETTTTELRHNMAIFFLAGHDTTANTLALCLYQLAKHKHVQKKARQEVLDILGDDPWDVAPSLEDLKKLNYLNMVIKENLRRNGPVDNLMSRDTQQDINLNGTFIPKGSKVVINVASIHLNPKIWHNPESFIPERFEQGGEFDSHDGFTWLPFSNGSRQCLGLNFSLTEQRVALCMLLKRYEIDIPKDSIHYDEIVFDKAFTFAPQSLELSFKKRY
B6: CYPDN29: cytochrome P450 homolog A0A068SBU5 from Lichtheimia corymbifera, codon-optimized (protein, listed as Lichtheimia corymbifera)
chain: MYTLVSFLKDQNIIAVLKNAIHAQQQGTTASSITILSLAVAITTFAVHRIRLYSVKEHGVPLVPYVLPFIGSSPEYRKDPKAFLEKWTAKFGPVFRAHIFGRVYTIISGHYVREVFLNEDFSFEVGMGKTFDGWLITDTKKSELFSTPLVRSMVMKHLAVDVKNYTPRAVEHLTIAAREMLGDIGESKELPHLYPLIQHMVSTAIASILVGLKICKDKDLLETFKNVAVDIGSELNPDSYLYEAFPTISRLRQWYLGKYGKAINKHQEHMLRVLGPEIDERLAAMERGDGGWERPEDILQGILETAKLTSDHPQRYMVPIKWFLILVFASIHTTSQNTTVAMYRLLQHPEVIDELLEEQNQVFEKHHGSNYDDHDITKLLTGEVIKDLVKLDSVCREAMRISSFYAELPHTYIGKSPLTMSNGTIINPGDDVLINGYTNHHDPDIQIDGGGDYAEFKPFRFVEKGRQSTRIGDDYLIFGQGKHACPGRWFAMQEMKTTISFLIRQYIITAKGDIMFLKGHRQKIPMGQVIFQKR
B7: CYPDN27: cytochrome P450 homolog A0A077WLY1 from Lichtheimia ramosa, codon-optimized (protein, listed as Licthheimia ramosa)
chain: MPSLIPKNASDAIEQYISRLKTMDRRHMGIIAGSVAVVSLYTFYRHLTRSRDDIPLVPYTWPLIGSTPSFNRDPVAFVEKWSQEYGPVFRAHLQGRIQTIIAAEYVRDIFMNSDFDFLFAVNKRFDPHLLADIDDNTFTTEMLRKVVMKLTTQLKSYTPRAVEFLDVGRNEFLSHFPAGPVHLPHLYPLIQHMVGKASAAIFAGTKLASNPEVVESFKNITLEVGAEIAVDSVFLERYWGLNRFRMWLMGKFSKSMKRHHRVLKDALRPEIKDRIEASSDPSRERPDDMLQIIIESYYTERRGESVDDLTEDLVKWLISLIFAAIHTTSENSTVVLYRILSKPDVVEELLEEQREVLVRHGISPDEKDPSKMFTGAVIKDLVKLDSACREGMRMRNDYLTLGHTYLGKKPITLSCGAVIKPGEDVIINTWYNHRNNKIQKIQGDDYSNYNPFRFVGSDRQAARIGDDFLIFGEGKHACPGRWFALQEMKTIISFLIRDYKMAPEGPITFPKNPKMTLPMGQVILESRH
B8: CYPDN21: cytochrome P450 homolog XM_018432503 from Phycomyces blakesleeanus, codon-optimized (protein, listed as Phycomyces biakesleeanus)
chain: MLAKKVNGYAGFTLDAIQTIYFNRAIKLVRPPKALSHIPHVPYFSYMSSLIKKENTISRNKRFANKLFEDPESNGLYLRPNVKGWEVVVTRPEDAKKLLFKSDIFPKADFTSGIDGTILSKFSRGPNLLFTTGAHWKAQRMVANPAFHRSAPVKLFGELTQKLFRVMDNRANKTVDITRLMEAWALDAIGLAGFDFDFNAIENPNSSWVRIYERVDKALVHPFYSFFPKADKYLLWVLPNRKQAHTDLDIFLKMIDNVIIAKKKALHENKSNKHLENSEKDLLTLMLESEAKGSTLSAKELRSNMCVFFAAGHETTANSLAYAIYFMAVNPDVQCKAREEAFKVLGDAQEDIMPTIEQTKSMDYINAVIKETLRSHSPALGTFARKATKDTELGGVLIPKDTMISMDIFNLHHNPNVWNNPDEFDPSRFLPGGEAEKQINNGFSWIPFGTGARQCIGMNFSLIEQRVMLSMMLRKFAWSLPEDSIHKDYLHTTNLVISSAKDLNINFEKLY
B9: CYPDN30: cytochrome P450 homolog A0A1X2H4N2 from Syncephalastrum racemosum, codon-optimized (protein, listed as Syncephalastrum racemosum)
chain: MNALLQRQDKMRDFLNTREGVYGITAAVAVVLISAYSLRRTVYTSRRKDEIATVPYKLPLKGSTEEYRADPRAFVEKYAKMYGPVYRAYLFGEMMTIVSDSYVREIFLNDNFNFFQAVKDRFDMVKLCNCANDEGHGIADIVKRCLNPRLDMYTERVNEQLEEASKEILTEVDTKGSQELMHMYILVQHMVARASATVFVGPELAKNSELIDSFKNMVIQVGSQLRPNPWLEPFPRLNSLRMWYIGKTSPVVRKHRLQLRSAVKPSIDDRLARQKSQGNAFQRPDDLLQDIIERHPEAKTKSDIYDYVVDTLTALIFAALHTTSENSTVVLYRLLQHPELMEELVAEQDAVLLEHGLPKDSSARVMTRQMIKKFEKLDSVCRESFRLRNDYLGLPHTYEGKKDIVLSNGAIIKPGEKAIINLWGNHHSGNTPQSTSQDYFGFDPYRFVKQDKQATKISEDFLFFGLGKHACPGRFFAVQEAKVLISVLLRNYKLSPVDPPYFATDDTMKIPAGRIRIERR

system: thebaine; assay: Demethylation of thebaine by new cytochrome P450 fungal and plant homologs co-expressed with CPRs in S. cerevisiae; details: 0.5 mM thebaine, SC or DELFT media pH 7, 72 h, 30° C.; co-expressed with Cel_CPR_co, Tp_CPR_5866, Tp_CPR_DN10898 or POR1

Row | Molecule | Northebaine production
1 | B1 | +
2 | B2 | +
3 | B3 | +
4 | B4 | +
5 | B5 | +
6 | B6 | +
7 | B7 | +
8 | B8 | +
9 | B9 | +
